Data reported in publication PMC8964761.

Tests used:
[1] = biological target: dimeric suPAR (human) (UniProt Q03405); assay: SEC; suPAR dimer mixed with excess ATF, 30 min at room temperature; complex purified on Superdex 200 10/300 (20 mM Tris pH 7.4, 150 mM KCl) and quantified by SDS-PAGE
[2] = biological target: dimeric suPAR (human) (UniProt Q03405); assay: SPR; Biacore T200; suPAR monomer or dimer captured on anti-uPAR antibody immobilised on a CM5 chip; ATF (0.14-33.3 nM) or scuPA (0.54-44.4 nM) flowed over; 10 mM HEPES, 150 mM NaCl, 3 mM EDTA, 0.005% P-20, pH 7.4, 20 °C; 1:1 Langmuir fit
[3] = biological target: FITC conjugated ATF; assay: high-content fluorescence imaging of FITC-ATF on 293T cells (FITC/mRuby3 intensity ratio); details: FITC-ATF for 1 h; uPAR-mRuby3 expressing 293T cells; parent: est. 0.41; read off a plot

Sequence of UniProt Q03405 (Q03405 23-299): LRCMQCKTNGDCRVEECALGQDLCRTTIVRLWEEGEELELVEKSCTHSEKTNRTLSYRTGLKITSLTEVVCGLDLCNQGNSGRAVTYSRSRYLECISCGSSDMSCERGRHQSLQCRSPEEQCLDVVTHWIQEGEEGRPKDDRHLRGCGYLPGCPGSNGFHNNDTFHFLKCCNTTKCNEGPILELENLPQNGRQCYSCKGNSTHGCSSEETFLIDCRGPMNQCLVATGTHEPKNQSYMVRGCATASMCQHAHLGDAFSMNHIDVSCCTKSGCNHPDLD

Substance “amino terminal fragment of uPA (ATF) (domain or fragment)” has a stoichiometry N (ATF molecules per uPAR dimer) [1] of 2 and a Kd [2] of 0.672 nM.

“uPAR^WT fused with mRuby3 (suPAR-mRuby3-GPI) (from UniProt Q03405) E49P” was tested, and the response [3] was 0.43.

“uPAR^WT fused with mRuby3 (suPAR-mRuby3-GPI) (from UniProt Q03405) H47C; N259C” showed a response [3] of 0.27.
